Experimental data published in US20230270824A1, “INTERFERON-BASED CANCER TREATMENT METHOD AND PHARMACEUTICAL COMPOSITION” (XIAMEN AMOYTOP BIOTECH CO., LTD., priority 2019, published 2023).

Key:
[1] = test system: transplanted lung cancer LLC; assay: Interferon combined with gemcitabine, transplanted lung cancer LLC in mice (Example 6); format: in vivo, C57BL/6N mice
Method: (§1) In this example, a comparative study on the efficacy of PEG-mIFN-α4 intermittent administration (once every 48 hours for four consecutive times, then drug withdrawal for 192 hours; for 5 rounds), PEG-mIFN-α4 continuous administration (once every 48 hours for 32 consecutive times), PEG-mIFN-α4 in combination with gemcitabine (PEG-mIFN-α4: once every 48 hours for four consecutive times, then drug withdrawal for 360 hours, 4 rounds; gemcitabine: once a week) on transplanted liver cancer LLC in mice was performed.
(§2) On the day when the tumor was inoculated, they were randomly divided into PEG-mIFN-α4 continuous administration group (N=26, female 13, male 13), PEG-mIFN-α4 intermittent administration group (N=26, female 13, male 13), the normal saline control group (N=26, female 13, male 13), the gemcitabine only group (N=26, female 13, male 13), and PEG-mIFN-α4 combined with gemcitabine group (N=26, female 13, male 13).
For the PEG-mIFN-α4 intermittent administration group, PEG-mIFN-α4 was administered once every 48 hours for 4 consecutive times, then drug withdrawal for 192 hours; for […]. For the PEG-mIFN-α4 continuous administration group, PEG-mIFN-α4 was administered once every 48 hours. For the PEG-mIFN-α4 combined with gemcitabine group, PEG-mIFN-α4 was administered once every 48 hours for 4 consecutive times, then drug withdrawal for 360 hours; for 4 rounds; and gemcitabine was administered once a week. For the gemcitabine only group, gemcitabine was administered once a week. For the saline control group, equal volume of saline was administered. Gemcitabine was injected intraperitoneally, 60 mg/kg.
(§3) SAS9.4 software was used for comparing the difference in mortality, and the statistical tests were all two-sided tests.

[2] = test system: mouse fibroblast/encephalomyocarditis virus (L929/EMCV); assay: Specific activity by mouse fibroblast/encephalomyocarditis virus (L929/EMCV) cytopathic inhibition method; format: cell-based; conditions: stock solution; commercial mIFN-α4 (R&D) as the standard
Method: (§4) The bacterial endotoxin content of the deglycosylated mIFN-α4 stock solution was determined by the Limulus reagent method as lower than 60 EU/mg. specific activity was determined as 5.4×10^8 U/mg by using the commercial mIFN-α4 (R&D, catalog number 12115-1) as the standard, and by using the mouse fibroblast/encephalomyocarditis virus (L929/EMCV) cytopathic inhibition method.
as §4, with “PEG-mIFN-α4” for “deglycosylated mIFN-α4”, “15” for “60”, “Specific” for “specific”, “6.1×10^6” for “5.4×10^8”

[3] = test system: transplanted liver cancer H22; assay: Interferon combined with gemcitabine, transplanted liver cancer H22 in mice (Example 5); format: in vivo, BALB/c mice; conditions: 108 days observation
Method: In this example, a comparative study on the efficacy of PEG-mIFN-α4 intermittent administration (once every 48 hours for three consecutive times, then drug withdrawal for 144 hours; for 8 rounds), PEG-mIFN-α4 continuous administration (once every 48 hours for 42 consecutive times), PEG-mIFN-α4 in combination with gemcitabine (PEG-mIFN-α4: once every 48 hours for three consecutive times, then drug withdrawal for 240 hours, 6 rounds; gemcitabine: once a week) on H22 transplanted liver cancer in mice was performed.
as §2, with “(N=24,” for “(N=26,”, “12,” for “13,”, “12),” for “13),”, “12).” for “13).”
Gemcitabine was injected intraperitoneally, 60 mg/kg.
For the PEG-mIFN-α4 intermittent administration group, PEG-mIFN-α4 was administered once every 48 hours for three consecutive times, then drug withdrawal for 144 hours; for 8 rounds. For the PEG-mIFN-α4 continuous administration group, PEG-mIFN-α4 was administered once every 48 hours. For the PEG-mIFN-α4 combined with gemcitabine group, PEG-mIFN-α4 was administered once every 48 hours for three consecutive times, then drug withdrawal for 240 hours; for 6 rounds; and gemcitabine was administered once a week. For the gemcitabine only group, gemcitabine was administered once a week. For the saline control group, equal volume of saline was administered.
Survival analysis was performed for all groups to compare the differences between groups.

[4] = test system: transplanted melanoma B16; assay: Interferon combined with gemcitabine, transplanted melanoma B16 in mice (Example 8); format: in vivo, C57BL/6N mice
Method: as §1, with “3” for “four”, “240” for “192”, “4” for “5”, “24” for “32”, “240” for “360”, “melanoma B16” for “liver cancer LLC”
as §2, with “(N=28,” for “(N=26,”, “14,” for “13,”, “14),” for “13),”, “14).” for “13).”
For the PEG-mIFN-α4 intermittent administration group, PEG-mIFN-α4 was administered once every 48 hours for 3 consecutive times, then drug withdrawal for 240 hours; for 4 rounds. For the PEG-mIFN-α4 continuous administration group, PEG-mIFN-α4 was administered once every 48 hours. For the PEG-mIFN-α4 combined with gemcitabine group, PEG-mIFN-α4 was administered once every 48 hours for 3 consecutive times, then drug withdrawal for 240 hours; for 4 rounds; and gemcitabine was administered once a week. For the gemcitabine only group, gemcitabine was administered once a week. For the saline control group, equal volume of saline was administered. Gemcitabine was injected intraperitoneally, 60 mg/kg.
as §3

B1: PEG-mIFN-α4: deglycosylated recombinant mouse interferon α4 modified with 40 kD Y-type polyethylene glycol (YPEG-NHS); SEQ ID NO: 6 (protein)
chain: CDLPHTYNLGNKRALTVLEEMRRLPPLSCLKDRKDFGFPLEKVDNQQIQKAQAILVLRDLTQQILNLFTSKDLSATWNATLLDSFCNDLHQQLNDLKACVMQEPPLTQEDSLLAVRTYFHRITVYLRKKKHSLCAWEVIRAEVWRALSSSTNLLARLSEEKE
modifications: 40 kD Y-type PEG; deglycosylated; amino acid sequence of peginterferon murine 4
Mortality ([1]; continuous administration (1 μg/mouse s.c. once every 48 hours), 45 days after tumor inoculation): 100% | Mortality ([1]; continuous administration (once every 48 hours), Day 64 post tumor inoculation): 100% | Mortality ([1]; intermittent administration (every 48 h x4, withdrawal 192 h), 45 days after tumor inoculation): 34.6% | Mortality ([1]; intermittent administration (every 48 h x4, withdrawal 192 h), Day 64 post tumor inoculation): 84.6% | Specific activity [2]: 6.1×10^6 U/mg | Mean survival period (days post tumor inoculation) ([3]; continuous administration: 1 μg/mouse s.c. once every 48 hours, 42 times): 37.0 days | Mean survival period (days post tumor inoculation) ([3]; intermittent administration: 1 μg/mouse s.c. every 48 h x3, withdrawal 144 h, 8 rounds): 64.0 days | Mortality ([4]; continuous administration (once every 48 hours), 46 days after tumor inoculation): 100% | Mortality ([4]; continuous administration (once every 48 hours, 24 times), Table 7, day not printed for this cell (footnotes: Day 46 / Day 48)): 100% | Mortality ([4]; intermittent administration (every 48 h x3, withdrawal 240 h, 4 rounds), 46 days after tumor inoculation): 39.3% | Mortality ([4]; intermittent administration (every 48 h x3, withdrawal 240 h, 4 rounds), 48 days after tumor inoculation): 46.4%
